Laboratory results as given in patent US6803203B1, “DNA-PK assay” (Brookhaven Science Associates, priority 1993, dated 2004).
“Also recorded” adds a separate entry of the source. Residues, ends and D or L forms follow the SMILES beside them. No end group written: not given here.

Legend:
Type in all cases: biochemical
[1] = target: T1, DNA-PK (Homo sapiens, UniProt P78527); assay: Conditions that result in 50% inhibition of DNA-PK activity; details: for 50% Inhibition / IC50: inhibition of DNA-PK activity in vitro
T1 construct: DNA-PK was purified from HeLa cells; endogenous in cells; host or cells: HeLa S3 cells; the endogenous enzyme was purified in house by chromatography
Method: Experiments were performed to determine optimal DNA-PK assay conditions. It was determined that DNA-PK is active over a broad pH range and the most common buffers with the exception of phosphate buffers. A summary of assay conditions that optimize DNA-PK activity in vitro is found in Table 4 along with a summary of conditions that result in 50% inhibition of DNA-PK activity.
The methods used to obtain results in the second section (Inhibitor section) of Table 4 are illustrative of methods that are applicable to identifying substances that alter the activity of DNA-PK.

[2] = target: T1, DNA-PK; assay: Phosphorylation of synthetic peptides by purified DNA-PK (phosphocellulose paper binding method); details: for PO4 incorp.: each peptide at 200 μM, calf thymus DNA 10 μg/ml, 30° C.
Method: Phenylmethylsulfonyl fluoride was added to the S10 (10,000×g) supernatant as a powder to 0.5 mM. DNA-PK activity was found in the 100,000×g (ribosomal) pellet. DNA-PK preparations typically were made from 200 ml of S10 supernatant that had been derived from approximately 10^10 cells. All steps were performed at 4° C. unless indicated otherwise.
Phosphorylation reactions were performed in a 20- or 40-μl final volume as previously described by Chen, et al., J. Virol., 10:5131-5140 (1991) and Lees-Miller, et al., Mol. Cell. […] In particular, in addition to synthetic peptide substrates or protein substrates, the assays contained 50 mM HEPES (pH 7.5), 100 mM KCl, 10 mM MgCl2, 2 mM EGTA, 0.1 mM EDTA and 0.125 mM ATP containing [^32P]ATP at 0.2 mCi/ml. […] Assays were started by adding 1 μl of kinase sample. Incubations were at 30° C. for 7 min.
For determinations of kinetic constants, the ATP concentration was 0.5 mM. When present, hsp90 was included at 0.5 mg/ml. Assay mixtures were preincubated at 30° C. for 2 min before addition of 0.1 to 0.5 μg (protein) of the DNA-PK preparation.
In particular, kinase reactions were stopped by adding an equal volume of 30% acetic acid, and portions of the acidified reaction were spotted on 2- by 2-cm squares of P-81 paper (Whatman, Inc., Clifton, N.J.). […] The P-81 squares were then transferred to scintillation vials containing 3.5 ml of water, and bound radioactivity was determined from the Cerenkov radiation. Enzyme activity was calculated from triplicate determinations, using the specific activity of the ATP and the protein concentration, which was determined by the Bio-Rad dye-binding assay (Bio-Rad (Bradford) Protein Assay Kit 1, Cat. No. 500-001, Bio-Rad Laboratories, Hercules, Calif.), using bovine serum albumin as the standard. […] The kinetic constants, Km and Vmax for each peptide sequence were calculated from plots of 1/[S] versus 1/V, the values reported are averages of at least two independent determinations.

[3] = target: T1, DNA-PK; assay: Poorer substrate peptides added to (SEQ ID NO: 8) phosphorylation assays; details: peptide up to 250 μM; (SEQ ID NO: 8) at 100 μM
[4] = target: T1, DNA-PK; assay: Identification of phosphorylated residues (sequence analysis, S-ethylcysteine conversion); details: p53 residue numbering
Method: To determine which of these were phosphorylated, after incubation with DNA-PK, radiochemical sequence analysis was performed by using a Beckman 890M spinning-cup sequencer (Beckman Instruments, Palo Alto, Calif.) as described by Lees-Miller, et al., J. Biol. Chem., 264:17275-17280 (1989). The peptide was isolated by reverse-phase HPLC, peptidylphosphoserine was converted to S-ethylcysteine, and the position of phenylthiohydantoin (PTH)-S-ethylcysteine was determined by chemical microsequence analysis using an Automated Protein/Peptide sequencer (Applied Biosystems, Foster City, Calif.) and a 120 PTH-Amino Acid Analyzer (Applied Biosystems, Foster City, Calif.) as described by Lees-Miller, et al., J. Biol. Chem., 264:17275-17280 (1989).
A peptide corresponding to mouse p53 residues Met^4-Pro^31, (SEQ ID NO: 2), was also examined (See Table 1). Serine 7 of mouse p53 is at the position equivalent to proline 4 of human p53, and the glutamine at position 8 of mouse p53 is conserved among mammals as reported by Soussi, et al., Oncogene, 5:945-952 (1990). After phosphorylation of (SEQ ID NO: 2) the peptide was digested with endoproteinase Glu-C, and the resulting fragments were separated by reverse-phase HPLC. […] Each peptide was treated to convert phosphoserine to S-ethylcysteine; then they were resequenced.

[5] = target: T1, DNA-PK; assay: Phosphorylation of recombinant protein substrates by purified DNA-PK (SDS-PAGE, phosphorimage); details: 5 μg/ml calf thymus DNA compared to no addition of DNA; 30 minutes at 30° C.
Method: The recombinant protein substrates, a total of six, (at approximately 0.1 mg/ml final concentration) were separately mixed with hsp90 in a phosphorylation reaction with purified DNA-PK (0.6 pg, 0.02 units/assay) without (−) or with (+) 5 μg/ml calf thymus DNA, in the presence of ^32P-ATP for 30 minutes at 30° C. as described by Lees-Miller, et al., Mol. Cell. Biol., 12:5041-5049 (1992). The phosphorylation reactions were stopped with SDS sample buffer and analyzed with SDS-PAGE. The gel was fixed, stained with Coomassie brilliant blue, dried and developed by autoradiographic procedures. The results of which can be seen in FIG. 9.

Row | Compound | substrate activity for DNA-PK (in words) [2] | PO4 incorp. [2] | inhibition of phosphorylation of (SEQ ID NO: 8) [3] | further results
1 | OCC(O)CO [Glycerol] |  |  |  | effect on DNA-PK activity (in words) [1]: inhibited; 50% Inhibition [1]: 25 % v/v
2 | Ser Lys Lys Gly Gln Ser Thr Ser Arg His Lys Lys Leu Met Phe (SKKGQSTSRHKKLMF; Human p53 residues 371-385; listed as Homo sapiens) [SEQ ID NO: 30] | phosphorylated at a negligible rate | 0 pmol/min/μg of DNA-PK |  | 
3 | EPPDSQEAFADLWKK [SEQ ID NO: 17] | less effective substrate for DNA-PK than peptides (SEQ ID NOS: 15 AND 16) | 48 pmol/min/μg of DNA-PK |  | 
4 | EPPLSEEAFADLWKK [SEQ ID NO: 32] | effectively eliminated the ability of the sequence to act as a DNA-PK substrate | 0.4 pmol/min/μg of DNA-PK | None of these peptides significantly inhibited the phosphorylation | 
5 | Phosphate |  |  |  | effect on DNA-PK activity (in words) [1]: inhibited; IC50 [1]: 10 mM
6 | EPPLSYEAFADLLKK [SEQ ID NO: 34] |  | 2.3 pmol/min/μg of DNA-PK |  | 
7 | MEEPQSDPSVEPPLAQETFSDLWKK [SEQ ID NO: 5] | ineffective substrate for DNA-PK | 5.3 pmol/min/μg of DNA-PK | None of these peptides significantly inhibited the phosphorylation | rate of phosphorylation relative to (SEQ ID NO: 4) ([2]; at 200 μM): about 10%
8 | CC(C)C[C@H](NC(=O)[C@H](CC(=O)O)NC(=O)[C@H](C)NC(=O)[C@H](Cc1ccccc1)NC(=O)[C@H](C)NC(=O)[C@H](CCC(=O)O)NC(=O)[C@H](CCC(N)=O)NC(=O)[C@H](CO)NC(=O)[C@H](CC(C)C)NC(=O)[C@@H]1CCCN1C(=O)[C@@H]1CCCN1C(=O)[C@@H](N)CCC(=O)O)C(=O)N[C@@H](Cc1c[nH]c2ccccc12)C(=O)N[C@@H](CCCCN)C(=O)N[C@@H](CCCCN)C(=O)O [SEQ ID NO: 11] (H-EPPLSQEAFADLWKK-OH) |  |  |  | Km relative to (SEQ ID NO: 8) [2]: twofold increase
9 | MEESQSDISLELPLSQETFSGLWKLLPP [SEQ ID NO: 2] |  |  |  | site phosphorylated by DNA-PK [4]: Ser^7 and Ser^18
10 | O=P(O)(O)OP(=O)(O)O [Pyrophosphate] |  |  |  | effect on DNA-PK activity (in words) [1]: inhibited; IC50 [1]: 3 mM
11 | hsp90: human heat shock protein hsp90, a known DNA-PK substrate [reference compound] |  |  |  | increase in phosphate incorporation by addition of double stranded DNA [5]: 20 fold
12 | PESEQAFADLWKK [SEQ ID NO: 23] | not phosphorylated by DNA-PK |  |  | 
13 | EPPLSQETFKK [SEQ ID NO: 9] |  | 15 pmol/min/μg of DNA-PK | None of these peptides significantly inhibited the phosphorylation | rate of phosphorylation relative to control (SEQ ID NO: 8) [2]: approximately 10%
14 | CSCC[C@H](NC(=O)[C@H](C)NC(=O)[C@H](CCC(N)=O)NC(=O)[C@H](CO)NC(=O)[C@@H]1CCCN1C(=O)[C@H](CC(C)C)NC(=O)[C@@H]1CCCN1C(=O)[C@H](CO)NC(=O)[C@H](CC(C)C)NC(=O)[C@@H](NC(=O)[C@H](CC(N)=O)NC(=O)[C@@H](N)CC(N)=O)C(C)C)C(=O)N[C@@H](CC(=O)O)C(=O)N[C@@H](CC(=O)O)C(=O)N[C@@H](CC(C)C)C(=O)N[C@@H](CCSC)C(=O)N[C@@H](CCCCN)C(=O)N[C@@H](CCCCN)C(=O)O [SEQ ID NO: 6] |  |  |  | Km relative to (SEQ ID NO: 4) [2]: twice as high
15 | EPPLSNEAFADLWKK [SEQ ID NO: 33] | eliminated the ability of the sequence to act as a DNA-PK substrate | 0.1 pmol/min/μg of DNA-PK | None of these peptides significantly inhibited the phosphorylation | 
16 | Glu Pro Pro Leu Ser Gln Glu Thr Phe Ser Asp—Lys Lys (EPPLSQETFSDKK; Human p53 residues 11-21; listed as Homo sapiens) [SEQ ID NO: 10] |  | 12 pmol/min/μg of DNA-PK | None of these peptides significantly inhibited the phosphorylation | rate of phosphorylation relative to control (SEQ ID NO: 8) [2]: approximately 10%
17 | Heparin [reference compound] |  |  |  | effect on DNA-PK activity (in words) [1]: inhibited; 50% Inhibition [1]: 1 µg/mL
18 | His Lys Lys Leu Met Phe Lys Thr Glu Gly Pro Asp Ser Asp (HKKLMFKTEGPDSD; Human p53 residues 380-393; listed as Homo sapiens) [SEQ ID NO: 31] | phosphorylated at a negligible rate; also recorded: not substrates for DNA-PK | 0 pmol/min/μg of DNA-PK | None of these peptides significantly inhibited the phosphorylation | 
19 | EPPLAQETFSDLWKK [SEQ ID NO: 22] | not phosphorylated efficiently by DNA-PK |  |  | 
